The results in this text go back to PMC2770657.

Where two headings read alike, the source gives them in different places.

What all share (test): EMSA
The target of data set [1] is T1, hPifHD E307Q (Homo sapiens, UniProt Q9H611 206-620, E307Q).
T1 sequence: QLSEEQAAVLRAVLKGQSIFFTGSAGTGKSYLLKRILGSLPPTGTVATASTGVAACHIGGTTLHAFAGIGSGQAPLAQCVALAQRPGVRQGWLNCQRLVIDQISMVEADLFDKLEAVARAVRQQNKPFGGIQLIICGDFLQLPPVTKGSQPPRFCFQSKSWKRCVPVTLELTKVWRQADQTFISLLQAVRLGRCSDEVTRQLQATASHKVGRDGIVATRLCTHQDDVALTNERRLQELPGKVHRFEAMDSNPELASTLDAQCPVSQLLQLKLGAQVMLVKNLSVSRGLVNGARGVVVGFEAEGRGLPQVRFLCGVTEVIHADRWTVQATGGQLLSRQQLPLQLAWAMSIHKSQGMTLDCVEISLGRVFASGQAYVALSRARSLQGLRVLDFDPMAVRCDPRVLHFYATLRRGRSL

For data set [2], the target named is T2, hPifHD (human Pif1 helicase domain) (Homo sapiens, UniProt Q9H611 206-620).
T2 sequence: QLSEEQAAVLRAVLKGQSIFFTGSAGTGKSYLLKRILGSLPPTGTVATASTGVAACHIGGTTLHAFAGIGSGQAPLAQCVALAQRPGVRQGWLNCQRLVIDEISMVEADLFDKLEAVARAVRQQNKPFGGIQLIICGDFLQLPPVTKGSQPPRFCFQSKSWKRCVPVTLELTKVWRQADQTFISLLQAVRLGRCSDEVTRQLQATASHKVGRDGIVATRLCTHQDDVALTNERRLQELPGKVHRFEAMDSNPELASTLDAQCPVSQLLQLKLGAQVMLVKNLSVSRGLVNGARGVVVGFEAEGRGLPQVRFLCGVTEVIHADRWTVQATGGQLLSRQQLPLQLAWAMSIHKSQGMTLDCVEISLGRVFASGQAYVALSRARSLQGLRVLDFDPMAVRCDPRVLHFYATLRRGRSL

Data set [3] deals with T2, hPifHD (human Pif1 helicase domain). The source holds these as a separate data set.

B1: T55 (ssDNA)
DNA: TTTTTTTTTTTTTTTTTTTTTTTTTTTTTTTTTTTTTTTTTTTTTTTTTTTTTTT
With B1, in data set [1], the binding result is listed as “binds”. As to TTTTTTTTTTTTTTTTTTTTTTTTTTTTTTTTTTT (ssDNA) [T35], the binding result in data set [2] is given as “binds”. Still for that read-out and setting: the same measure for TTTTTTTTTTTTTTTTTTTTTTTTTTTTTTTTTTTTTTTTTTTTTTTTTT (ssDNA) [T50]: “binds”. For the molecule TTTTTTTTTTTTTTTTTTTTTTTTT (ssDNA) [T25], the binding result in data set [3] is reported as “no binding”.
